Measured values: article PMC3115387 (Proteins, 2011)

Target: the molecule itself
Assay: native gel or EMSA

B1: Mitomycin-7-O-methyltransferase (MmcR), recombinant N-His6-MmcR (enzyme, Streptomyces lavendulae)
chain: MTVEQTPENPGTAARAAAEETVNDILQGAWKARAIHVAVELGVPELLQEGPRTATALAEATGAHEQTLRRLLRLLATVGVFDDLGHDDLFAQNALSAVLLPDPASPVATDARFQAAPWHWRAWEQLTHSVRTGEASFDVANGTSFWQLTHEDPKARELFNRAMGSVSLTEAGQVAAAYDFSGAATAVDIGGGRGSLMAAVLDAFPGLRGTLLERPPVAEEARELLTGRGLADRCEILPGDFFETIPDGADVYLIKHVLHDWDDDDVVRILRRIATAMKPDSRLLVIDNLIDERPAASTLFVDLLLLVLVGGAERSESEFAALLEKSGLRVERSLPCGAGPVRIVEIRRA
modifications: selenomethionine (SeMet-labeled protein used for the crystals)
stoichiometry N: 2
